Patent US8969027B2, “Protease assay” (priority 2008, dated 2015)
No end group written: not given here.

Assays:
urokinase [1] = molecular target: T1, urokinase (Homo sapiens, UniProt P00749); assay: FRET-based sensor emission spectra in the presence of urokinase; format: biochemical; conditions: assembly 1×10^−5 M in PBS, about 1×10^−8 M urokinase, 0-6 minutes
T1 construct: purchased Innovative Research, Inc., Novi, Mich
Method: For the FRET-Based Sensor, five Zn-TCPP porphyrins were attached to one central stealth-protected Fe/Fe3O4 nanoparticle, and then a non-metalated TCPP porphyrin was attached to the central nanoparticle, using the procedure described below.
To prepare the stealth-protected Fe/Fe3O4-nanoparticles, 35 mg of dopamine-tetraethylene glycol ligand were dissolved in 5 ml THF. Next, 11.0 mg of Fe/Fe3O4-nanoparticles were added and sonicated at room temperature for 1 hour. […] The solid was then collected with a magnet and solvent was decanted carefully. The solid was washed with THF (3×3 ml). After drying under vacuum for 2 hours, 10.0 mg of stealth-protected nanoparticle product was obtained.
The oligopeptide linker was then attached to the metalated porphyrin. […]
The emission spectra of the nanoplatform assembly (1×10^−5 M) in PBS in the presence of about 1×10^−8 M urokinase is depicted in FIG. 4, at 0 (A), 2 (B), 4 (C), and 6 minutes (D). […] The reason for the observed non-linear behavior can be found in the high fluorescence quantum yield of the untethered, non-metalated TCPP. […]
In FIG. 5, the ratios of the integrals of the fluorescence bands shown at λ1=607 nm, λ2=654 nm, and λ3=718 nm are plotted versus the mol percent of released TCPP (as measured by HPLC using an Agilent workstation (HP 1050) equipped with an optical detection system). […]

[2] = Fluorescence quantum yield of TCPP; format: physicochemical; conditions: untethered, non-metalated TCPP
Method: The emission spectra of the nanoplatform assembly (1×10^−5 M) in PBS in the presence of about 1×10^−8 M urokinase is depicted in FIG. 4, at 0 (A), 2 (B), 4 (C), and 6 minutes (D). […] The reason for the observed non-linear behavior can be found in the high fluorescence quantum yield of the untethered, non-metalated TCPP. We estimated Φ=0.082, which is approximately eight times higher than in the tethered state, when the large porphyrin-concentration in the sphere around the Fe/Fe3O4-nanoparticle leads to increase FRET and, consequently, radiation-less deactivation of the excited states.

urokinase [3] = molecular target: T1, urokinase; assay: Fluorescence/phosphorescence assay of uPA activity with chromophore-chromophore assembly; format: biochemical; conditions: excitation of pyrene at 280 nm, 37° C., about 1×10^−8 mol urokinase, 0-15 minutes
Method: In this example, fluorescence/phosphorescence assays were used to measure activity of uPA. A chromophore-chromophore assembly was prepared using the peptide sequence SRSRSRSRSRSGRSAGGGC (SEQ ID NO: 18) (GenScript) as a spacer between a pyrene fluorophore and a coumarin acceptor. All chemicals and solvents were purchased from Fisher/Acros (Pittsburgh, Pa.), unless otherwise noted. The assembly was prepared by dissolving 0.00010 mol of coumarin in THF at room temperature. Next, 0.00012 mol of 1-ethyl-3-(3-dimethyllaminopropyl)carbodiimide (EDC) were added as solid under argon-atmosphere and allowed to react for 5 hours. Then, the oligopeptide linkage was attached to the coumarin by adding to the reaction 0.00010 mol of the oligopeptide dissolved in 1 ml bidest. (double purified) water, followed by stirring at room temperature for 24 hours under argon atmosphere. Next, 0.0020 mol of mercaptopyrene was added as a solid to the solution, and completely dissolved within 5 minutes. The solution was continuously stirred under ambient conditions for another 24 hours. […]
The spectral shift from the assay is depicted in FIG. 3. The changes in the emission spectra were measured using a spectrofluorometer (ISA-SPEX, Fluoromax-2; ISA, Inc., Edison, N.J.). Upon photoexcitation of the pyrene at 280 nm, FRET occurs, which causes the attached coumarin to emit most of the phosphorescence/luminescence. […]

urokinase [4] = molecular target: T1, urokinase; assay: UV/Vis-absorption spectroscopy measurement of uPA activity with nanoparticle-nanoparticle assembly; format: biochemical; conditions: PBS, 37° C.
Method: In this procedure, UV/Vis-Absorption spectroscopy was used to measure the activity of uPA. All chemicals and solvents were purchased from Fisher/Acros (Pittsburgh, Pa.), unless otherwise noted. A nanoparticle-nanoparticle assembly was prepared using citrate-stabilized gold nanoparticles (Sigma-Aldrich, St. Louis, Mo.) with a 10 nm diameter and an oligopeptide with the following sequence: CGGGSGRSAGGGC (SEQ ID NO: 35) (GenScript, Piscataway, N.J.). First, 1 mg of the nanoparticles was suspended in 25 ml of tetrahydrofuran (THF) containing 1.0×10^−3 M of glycine. The microheterogeneous solution was heated under pressure (100 psi) and argon-atmosphere to 200° C. for 5 hours. The reaction was carried out using a High-Pressure Reactor (available from Parr Instruments, Moline, Ill.). Digestive ripening decreased the Au-nanoparticle diameter to 4-5 nm. The nanoparticles were then removed from the solution by ultracentrifugation at 30,000 rpm and then resuspended in THF. The procedure was repeated 10 times to remove all non-bonded glycine.
Next, 0.1 mg of the oligopeptide was added to the Au-nanoparticles in 1.0 ml of anhydrous THF, followed by stirring for 24 hours. The oligopeptide and nanoparticles were precipitated by centrifugation at 30,000 rpm and then resuspended in THF. This procedure was repeated 10 times. The linked Au—Au nanoparticle assemblies were then dissolved in phosphate buffer (PBS; pH=7.02), precipitated by centrifugation at 20,000 rpm and resuspended again in PBS.
The reported absorption coefficient at the maximum absorption of the plasmon is ε=7.66×10^9 M^−1 cm^−1. This absorption coefficient was used to estimate the concentration of the Au—Au nanoparticles at […].
The Au—Au nanoparticles in PBS solution were then added to a quartz cuvette (˜3.0 mL). The solution was heated to 37° C. for 15 minutes. Next, 1×10^−8 mol of urokinase in 0.050 ml of PBS (Innovative Research, Inc., Novi, Mich.) was added to the cuvette. […]

Molecule: FRET-Based Sensor: five Zn-TCPP porphyrins and a non-metalated TCPP attached to one stealth-protected Fe/Fe3O4 nanoparticle via CGGGSGRSAGGGC linkers (cysteine pairing not given here; also: links Zn-TCPP porphyrins and TCPP to Fe/Fe3O4 nanoparticle, attachment points not given here)
- fluorescence band at λ1=607 nm in the presence of urokinase (urokinase [1]): distinct decrease

Molecule: O=C(O)c1ccc(-c2c3nc(c(-c4ccc(C(=O)O)cc4)c4ccc([nH]4)c(-c4ccc(C(=O)O)cc4)c4nc(c(-c5ccc(C(=O)O)cc5)c5ccc2[nH]5)C=C4)C=C3)cc1 [TCPP, tetracarboxy-phenyl-porphyrin]
- fluorescence quantum yield Φ [2]: 0.082

Molecule: chromophore-chromophore assembly: pyrene fluorophore and coumarin acceptor linked by peptide SRSRSRSRSRSGRSAGGGC (SEQ ID NO: 18) (also: pyrene fluorophore and coumarin acceptor attached)
- coumarin emission (FRET) after adding urokinase (urokinase [3]): decreases with time

Molecule: coupled pair of gold nanoparticles: 4-5 nm gold nanoparticles linked by oligopeptide CGGGSGRSAGGGC (SEQ ID NO: 35) (cysteine pairing not given here; also: attached to gold nanoparticles)
- maximum of the gold plasmon absorption after urokinase cleavage (urokinase [4]; 1×10^−8 mol urokinase): 517 nm
- time for the shift of the plasmon absorption maximum (urokinase [4]; 1×10^−8 mol urokinase): ≤ 180 s
- maximum of the gold plasmon absorption before urokinase cleavage (urokinase [4]; before adding urokinase): 523 nm
